According to patent publication US20260209345A1 (IOMX THERAPEUTICS, published 2026):
Positions count from the first letter of the chain named.

B1: A-001 (antibody, V domains shown)
VH: QVQLVQSGAEVKKPGSSVKVSCKASGGTFSSYAISWVRQAPGQGLEWMGGIIPIFGTANYAQKFQGRVTITADESTSTAYMELSSLRSEDTAVYYCAKDLGTYSSGWPYYYGMDVWGQGTTVTVSS
VL: SYELTQPPSVSVSPGQTASITCSGDKLGDKYASWYQQKPGQSPVLVIYQDSKRPSGIPERFSGSNSGNTATLTISGTQAEDEADYYCQSTTHTSFVFGGGTKLTVL
notes: tested as IgG; also called parental antibody A-001
B2: A-016 (antibody, V domains shown)
VH: B1 VH with I34F, S35N, G50S, G56K
VL: B1 VL
notes: tested as IgG
B3: A-014 (antibody, V domains shown)
VH: B1 VH with S35N, G56H, A58S
VL: B1 VL
notes: tested as IgG
B4: A-013 (antibody, V domains shown)
VH: B1 VH with S30R, S31Q, Y32E, I34F, G50S, G56Y, T57S, A58S
VL: B1 VL
notes: tested as IgG
B5: A-007 (antibody, V domains shown)
VH: B1 VH with T28S, S30R, S31E, I34F, G50S, I54T, G56H, A58S, Q62G
VL: B1 VL
notes: tested as IgG
B6: A-010 (antibody, V domains shown)
VH: B1 VH with S30Q, Y32Q, I34F, S35A, G50S, I54G, G56S
VL: B1 VL
B7: A-036 (antibody, V domains shown)
VH: B1 VH
VL: B1 VL with S89L, T91H, H92L, S94I, F95Y
notes: tested as IgG
B8: A-046 (antibody, V domains shown)
VH: B1 VH with T28S, S30Q, S35N, I54G, G56S
VL: B1 VL with S89L, T91H, H92L, S94I, F95Y
notes: tested as IgG
B9: A-004 (antibody, V domains shown)
VH: B1 VH with S30R, S31T, Y32K, S35A, G56S, Q62P
VL: B1 VL
notes: tested as IgG
B10: A-011 (antibody, V domains shown)
VH: B1 VH with T28S, S31H, Y32S, I34F, G50S, I54A, G56Y
VL: B1 VL
notes: tested as IgG
B11: A-015 (antibody, V domains shown)
VH: B1 VH with T28S, S30Q, S35N, I54G, G56S
VL: B1 VL
notes: tested as IgG
B12: A-012 (antibody, V domains shown)
VH: B1 VH with F29I, S31E, I34F, S35L, I54K, G56H
VL: B1 VL
notes: tested as IgG
B13: A-006 (antibody, V domains shown)
VH: B1 VH with S31Q, I34F, G50S, I54G, G56T, A58S, Q62H
VL: B1 VL
notes: tested as IgG
B14: A-009 (antibody, V domains shown)
VH: B1 VH with S31V, Y32T, S35L, I54S, G56T, T57S, Q62S
VL: B1 VL
notes: tested as IgG
B15: A-005 (antibody, V domains shown)
VH: B1 VH with S30T, S31I, S35N, I54G, G56H, T57S
VL: B1 VL
notes: tested as IgG
B16: A-008 (antibody, V domains shown)
VH: B1 VH with S30A, S31E, Y32S, S35L, I52V, I54S, G56Y, T57S
VL: B1 VL
notes: tested as IgG
B17: A-022 (antibody, V domains shown)
VH: QVQLVQSGAEVKKPGSSVKVSCKASGGTFGGSAISWVRQAPGQGLEWMGGIVLAYSTSVYAQKFQGRVTITADESTSTAYMELSSLRSEDTAVYYCAKGPPVGSSSWYTDWYFDLWGRGTLVTVSS
VL: SYELTQPPSVSVSPGQTASITCSGDKLGDKYASWYQQKPGQSPVLVIYQDSKRPSGIPERFSGSNSGNTATLTISGTQAEDEADYYCLSYGAHSHGVVFGGGTKLTVL
notes: tested as IgG
B18: A-037 (antibody, V domains shown)
VH: QVQLVQSGAEVKKPGSSVKVSCKASGGTFSSYAISWVRQAPGQGLEWMGGIIPIFGTANYAQKFQGRVTITADESTSTAYMELSSLRSEDTAVYYCARVHLYYHFPASYFDYWGQGTLVTVSS
VL: B17 VL with S89A, Y90S, G91L, A92G, H93T, S94G, H95G, G96V, V97Y
notes: tested as IgG

What was measured:
recombinant LILRA3 = biological target: T1, recombinant LILRA3 (human, UniProt Q8N6C8 24-439); test: BLI, IgG on AHC sensor, ECD in solution
T1 construct: whole entry named; also called LILRA3 ECD; LILA3
Method: (§1) Briefly, IgGs were captured on anti-human capture (AHC) biosensors (Sartorius). […] Subsequently, the sensors were dipped into 1× Kinetics Buffer to measure the dissociation over 420 s. All sensorgrams were double referenced against 1× Kinetics Buffer and unloaded […] sensors to subtract sensor drifts and potential reference binding of the analytes. The affinities were determined by applying a 1:1 binding model.

recombinant LILRB1 ECD [1] = biological target: T2, recombinant LILRB1 ECD (human, UniProt Q8NHL6 24-461); test: BLI, IgG on AHC sensor, ECD in solution
T2 construct: also called biotinylated LILRB1 ECD
Method: as §1

recombinant LILRA1 ECD = biological target: T3, recombinant LILRA1 ECD (human, UniProt O75019 17-461); test: BLI, IgG on AHC sensor, ECD in solution
T3 construct: whole canonical entry named; also called LILA1
Method: as §1

recombinant LILRB1 ECD [2] = biological target: T2, recombinant LILRB1 ECD; test: ELISA, LILRB1 ECD binding to HLA-G-Fc
Method: (§2) HLA-G inhibition was tested by ELISA. 384-well Maxisorp plates were coated with 2 ug/mL B2M-HLA-G fused to a mouse IgG2a-Fc and the plates were blocked with 2% (w/v) BSA in PBST. […] 15 ul of the antibody dilution series (300 nM to 0.3 nM) were mixed with 30 μL of the pre-mixed LILRB/Avidin-HRP solution (final antibody concentration 100 nM to 0.1 nM) and incubated for 1 h at room temperature. After three wash cycles with PBST, 20 μL of the antibody/LILRB/Avidin-HRP solution was transferred to the plate with immobilized HLA-G and incubated for 15 min at room temperature. After three wash cycles with PBST, residual LILRB binding to HLA-G was detected by developing the ELISA with TMB substrate.

recombinant LILRB2 ECD [3] = biological target: T4, recombinant LILRB2 ECD (human, UniProt Q8N423 22-460); test: ELISA, LILRB2 ECD binding to HLA-G-Fc
T4 construct: also called biotinylated LILRB2 ECD
Method: as §2

recombinant LILRB2 ECD [4] = biological target: T4, recombinant LILRB2 ECD; test: BLI, IgG on AHC sensor, ECD in solution
Method: as §1

T1 sequence (Q8N6C8 24-439 limits assumed): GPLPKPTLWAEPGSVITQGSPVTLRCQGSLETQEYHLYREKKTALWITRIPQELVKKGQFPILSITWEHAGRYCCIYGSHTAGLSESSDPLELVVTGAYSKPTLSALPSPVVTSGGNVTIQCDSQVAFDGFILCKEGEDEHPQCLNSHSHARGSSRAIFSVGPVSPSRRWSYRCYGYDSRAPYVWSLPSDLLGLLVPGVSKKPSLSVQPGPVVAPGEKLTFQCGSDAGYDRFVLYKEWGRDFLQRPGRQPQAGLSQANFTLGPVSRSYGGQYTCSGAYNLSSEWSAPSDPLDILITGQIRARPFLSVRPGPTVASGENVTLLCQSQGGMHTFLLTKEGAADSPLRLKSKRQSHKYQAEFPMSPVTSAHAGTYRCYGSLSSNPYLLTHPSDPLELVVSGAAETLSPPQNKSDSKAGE
T2 sequence (Q8NHL6 24-461 limits assumed): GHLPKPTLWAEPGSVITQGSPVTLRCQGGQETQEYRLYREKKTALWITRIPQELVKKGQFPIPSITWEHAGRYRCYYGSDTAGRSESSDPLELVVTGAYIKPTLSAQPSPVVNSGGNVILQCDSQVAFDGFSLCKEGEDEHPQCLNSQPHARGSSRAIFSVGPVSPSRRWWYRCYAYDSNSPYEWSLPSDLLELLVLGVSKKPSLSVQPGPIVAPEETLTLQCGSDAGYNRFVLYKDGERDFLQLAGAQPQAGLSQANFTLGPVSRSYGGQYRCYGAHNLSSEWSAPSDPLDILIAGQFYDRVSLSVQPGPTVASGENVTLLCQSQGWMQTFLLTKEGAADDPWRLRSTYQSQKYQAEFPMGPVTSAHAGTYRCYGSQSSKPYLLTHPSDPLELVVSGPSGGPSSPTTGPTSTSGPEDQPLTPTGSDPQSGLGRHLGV
T3 sequence (O75019 17-461 limits assumed): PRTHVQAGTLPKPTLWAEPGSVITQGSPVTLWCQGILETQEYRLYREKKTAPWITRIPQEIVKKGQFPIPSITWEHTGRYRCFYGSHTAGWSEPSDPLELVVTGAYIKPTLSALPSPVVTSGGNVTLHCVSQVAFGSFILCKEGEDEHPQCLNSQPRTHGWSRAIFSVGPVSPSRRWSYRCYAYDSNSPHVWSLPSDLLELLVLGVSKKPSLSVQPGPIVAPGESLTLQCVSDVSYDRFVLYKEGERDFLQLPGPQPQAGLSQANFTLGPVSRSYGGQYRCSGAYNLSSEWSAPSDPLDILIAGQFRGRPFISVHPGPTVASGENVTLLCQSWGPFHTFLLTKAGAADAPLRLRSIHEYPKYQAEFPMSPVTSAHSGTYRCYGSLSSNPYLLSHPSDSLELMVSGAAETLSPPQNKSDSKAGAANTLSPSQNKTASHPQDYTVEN
T4 sequence (Q8N423 22-460 limits assumed): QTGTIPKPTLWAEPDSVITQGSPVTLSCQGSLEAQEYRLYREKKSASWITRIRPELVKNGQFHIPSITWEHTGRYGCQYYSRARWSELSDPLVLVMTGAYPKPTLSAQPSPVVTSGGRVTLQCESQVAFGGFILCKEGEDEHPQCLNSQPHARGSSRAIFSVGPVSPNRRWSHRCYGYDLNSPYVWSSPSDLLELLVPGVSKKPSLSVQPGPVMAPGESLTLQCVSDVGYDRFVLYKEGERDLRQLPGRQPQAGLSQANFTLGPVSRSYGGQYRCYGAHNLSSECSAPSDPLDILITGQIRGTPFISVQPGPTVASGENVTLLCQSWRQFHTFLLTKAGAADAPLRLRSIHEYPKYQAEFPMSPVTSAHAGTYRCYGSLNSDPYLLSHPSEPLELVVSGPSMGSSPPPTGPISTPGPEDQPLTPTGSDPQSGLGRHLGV

Row | Molecule | Kd (recombinant LILRA3) [nM] | Kd (recombinant LILRB1 ECD [1]) [nM] | Kd (recombinant LILRA1 ECD) [nM] | IC50 (recombinant LILRB1 ECD [2]) [nM] | IC50 (recombinant LILRB2 ECD [3]) [nM] | Kd (recombinant LILRB2 ECD [4]) [nM] | binding result (recombinant LILRA1 ECD)
1 | Ref051 [BND-22, LILRB1 specific] (antibody) | 39.4 | 6.9 | 15.1 | 1.8 | – | – | –
2 | B1 | 576 | 157 | 1820 | 5.1 | 3.1 | 36.4 | –
3 | B2 | 116 | 6.5 | 402 | 4.4 | 5.1 | 1.4 | –
4 | B3 | 58.8 | 4.4 | 471 | 3.8 | 4.2 | 2.3 | –
5 | B4 | 622 | 6.3 | 1080 | 4.5 | 4.6 | 4.2 | –
6 | B5 | 255 | 11.7 | 322 | 3.3 | 3.6 | 1.2 | –
7 | B6 | 217 | 4.5 | 760 | 4.1 | 3.7 | 3.3 | –
8 | B7 | – | 35.8 | 42900 | 1.2 | 2.7 | 18.6 | –
9 | B8 | – | 12.6 | – | 2 | 3.7 | 9.4 | no binding (tested: 900 nM)
10 | B9 | 232 | 12.8 | 569 | 4.4 | 4.5 | 7.1 | –
11 | B10 | 137 | 9.3 | 470 | 6.1 | 5.5 | 4.4 | –
12 | B11 | 202 | 5 | 868 | 4.4 | 3.2 | 3.5 | –
13 | B12 | 166 | 12.8 | 469 | 3.3 | 3.8 | 6.8 | –
14 | B13 | 182 | 0.5 | 190 | 6.1 | 4.8 | 2.3 | –
15 | B14 | 92.8 | 3.7 | 194 | 5.5 | 5.5 | 3.4 | –
16 | B15 | 161 | 1 | 407 | 5 | 4.3 | 3.3 | –
17 | B16 | 355 | 7.4 | 1520 | 4.1 | 4 | 8.8 | –
18 | B17 | 317 | 5.2 | – | 3.9 | 3.1 | 4.4 | –
19 | B18 | – | 16 | 1270 | 3.8 | 3.5 | 2 | –
